Measurements published in CN114773460A.

Molecular target: 轮状病毒重组蛋白VP8 (recombinant rotavirus VP8, part of the spike protein VP4) (轮状病毒 (rotavirus; strain not stated))
Assay: ELISA, antigen coated at 10 μg/mL, Rot1 in 2-fold dilutions from 10 μg/mL (16 points), anti-His detection, OD450

B1: 纳米抗体Rot1 (nanobody Rot1, fusion protein with C-terminal histidine tag and human influenza hemaggluti (VHH)
VHH: QVQLQESGGGLVQAGGSLRLSCTASGYRFSNLAVGWFRQAPGQEREAVAVIFVGGITYYADSVKGRFTISRDNAKNTVTLQMNNLKPEDTAIYYCAAYVHMYCASQTITRYDYWGQGTQVTVSS
Question: With B1 as the binder, how does the EC50 read?
Answer: Its EC50 is 0.195 µg/mL.
